# Patent US20260210939A1, “MODIFIED OLFACTORY RECEPTORS” (GIVAUDAN SA, priority 2022, published 2026)
# Where two headings read alike, the source gives them in different places.
# Assays:
# OR7C1 = target: T1, OR7C1 (Homo sapiens, UniProt O76099, D296E/G302K/M297V/R299D/T295K/V126I); experiment: CRE-luciferase assay, HEK293T cells expressing OR7C1 (wild-type / modified C-terminus); format: cell-based; settings: OR7C1 variant, 1 μM Ambermax
# T1 construct: Improved functional expression of modified OR-genes containing the truncated, optimized C-terminus; expressed in transfected cells; host or cells: HEK293T stably expressing human RTP1S(V227I) and RTP2(L220R)
# T1 sequence (O76099 with tags, fused parts or gaps V126I/T295K/D296E/M297V/R299D/G302K): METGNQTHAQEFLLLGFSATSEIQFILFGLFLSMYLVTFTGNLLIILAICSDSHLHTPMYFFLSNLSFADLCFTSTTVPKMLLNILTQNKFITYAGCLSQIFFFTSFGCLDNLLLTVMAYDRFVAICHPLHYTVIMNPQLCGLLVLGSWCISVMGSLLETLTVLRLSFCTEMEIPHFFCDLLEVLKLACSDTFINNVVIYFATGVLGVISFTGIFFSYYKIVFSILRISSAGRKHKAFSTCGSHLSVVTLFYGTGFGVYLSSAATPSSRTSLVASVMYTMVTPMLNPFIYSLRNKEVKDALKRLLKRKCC
# From the text: To test for possible variants of the sequence […]CC (SEQ ID NO: 86) leading to similar improved functional expression, different point mutations were introduced into the first 16 amino acids of this sequence (corresponding to […], SEQ ID NO: 10) and the variants were fused after the TM7 with OR7C1. […] The test concentrations were selected to fall into the range of partial activity of the wild-type sequence.
# OR5B12 = target: T2, OR5B12 (Homo sapiens, UniProt Q96R08, C141R); experiment: CRE-luciferase assay, HEK293T cells expressing OR5B12 (wild-type / modified C-terminus); format: cell-based; settings: OR5B12 variant
# T2 construct: Improved functional expression of modified OR-genes containing the truncated, optimized C-terminus; expressed in transfected cells; host or cells: HEK293T stably expressing human RTP1S(V227I) and RTP2(L220R)
# T2 sequence (Q96R08 with tags, fused parts or gaps C141R): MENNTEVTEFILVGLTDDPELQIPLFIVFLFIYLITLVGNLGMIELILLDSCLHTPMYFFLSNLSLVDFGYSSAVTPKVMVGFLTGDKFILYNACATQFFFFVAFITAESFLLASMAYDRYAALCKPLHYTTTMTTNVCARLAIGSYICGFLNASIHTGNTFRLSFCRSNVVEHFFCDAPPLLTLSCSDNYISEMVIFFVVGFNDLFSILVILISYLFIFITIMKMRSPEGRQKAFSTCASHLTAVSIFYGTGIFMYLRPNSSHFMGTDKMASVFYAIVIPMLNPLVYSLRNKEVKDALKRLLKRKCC
# OR5A2 = target: T3, OR5A2 (Homo sapiens, UniProt Q8NGI9); experiment: CRE-luciferase assay, HEK293T cells expressing OR5A2 (wild-type / modified C-terminus); format: cell-based; settings: for fold-induction of luciferase: OR5A2 variant
# T3 construct: Improved functional expression of modified OR-genes containing the truncated, optimized C-terminus; expressed in transfected cells; host or cells: HEK293T with stably integrated human RTP1S(V227I) and RTP2(L220R)
# T3 sequence (Q8NGI9 with tags, fused parts or gaps): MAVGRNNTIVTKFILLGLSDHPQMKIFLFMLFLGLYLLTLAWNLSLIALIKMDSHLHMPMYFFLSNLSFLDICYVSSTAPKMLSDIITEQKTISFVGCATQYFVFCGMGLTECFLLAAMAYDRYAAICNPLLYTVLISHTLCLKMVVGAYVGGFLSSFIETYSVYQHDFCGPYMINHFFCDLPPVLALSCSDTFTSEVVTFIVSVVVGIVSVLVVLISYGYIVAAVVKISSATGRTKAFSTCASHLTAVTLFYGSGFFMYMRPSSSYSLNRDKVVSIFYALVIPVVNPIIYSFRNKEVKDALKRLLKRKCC
# OR2T4 = target: T4, OR2T4 (Homo sapiens, UniProt Q8NH00, D328E/G331D/M330K); settings: OR2T4 variant
# T4 sequence (Q8NH00 with tags, fused parts or gaps D328E/M330K/G331D): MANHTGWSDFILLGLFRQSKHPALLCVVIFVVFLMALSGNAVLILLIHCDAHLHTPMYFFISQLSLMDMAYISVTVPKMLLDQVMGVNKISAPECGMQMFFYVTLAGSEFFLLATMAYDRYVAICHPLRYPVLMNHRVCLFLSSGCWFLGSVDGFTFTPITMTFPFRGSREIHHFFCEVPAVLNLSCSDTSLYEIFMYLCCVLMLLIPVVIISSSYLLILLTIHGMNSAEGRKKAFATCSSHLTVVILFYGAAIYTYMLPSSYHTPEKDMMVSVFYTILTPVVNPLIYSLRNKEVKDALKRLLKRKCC
# OR52A5 = target: T5, OR52A5 (Homo sapiens, UniProt Q9H2C5); format: cell-based
# T5 construct: Improved functional expression of modified OR-genes containing the truncated, optimized C-terminus; expressed in transfected cells; host or cells: HEK293T stably expressing human RTP1S(V227I) and RTP2(L220R)
# T5 sequence (Q9H2C5 with tags, fused parts or gaps): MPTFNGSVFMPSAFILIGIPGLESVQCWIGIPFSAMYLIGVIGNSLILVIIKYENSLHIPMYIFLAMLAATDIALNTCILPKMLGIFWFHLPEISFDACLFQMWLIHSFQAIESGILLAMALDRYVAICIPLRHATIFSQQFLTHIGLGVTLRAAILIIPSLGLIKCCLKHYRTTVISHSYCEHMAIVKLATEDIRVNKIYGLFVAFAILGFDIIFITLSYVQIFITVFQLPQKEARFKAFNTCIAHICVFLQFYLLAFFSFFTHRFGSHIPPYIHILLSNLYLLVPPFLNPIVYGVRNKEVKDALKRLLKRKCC
# Protocol: Further variants of the improved C-terminal domain sequence […] (SEQ ID NO: 86) and falling within the general sequence RN[KR][EDQ][VMIL][KR]xA[LIV][KRH][KR][LI][LIF][KRG][KR][KR] (SEQ ID NO: 1) with further amino acids at the C-terminal end (CC) were tested on the class I receptor OR52A5 activated by 4-ethyloctanoic acid. […] This activation is further improved by either replacing amino acid position 4-6 with the sequence QIR or by adding the terminal sequence RRR.
# [1] = 4 μM 2-methyl-3-tetrahydrofuranethiol
# [2] = 8 μM 2-methyl-3-tetrahydrofuranethiol
Molecule,% of the activation by the optimized sequence RNKEVKDALKRLLKRKCC (OR7C1) [%],% of the activation by the optimized sequence RNKEVKDALKRLLKRKCC (OR5B12; 31 μM Hedione HC) [%],% of the activation by the optimized sequence RNKEVKDALKRLLKRKCC (OR5B12; 62.5 μM Hedione HC) [%],% of the activation by the optimized sequence RNKEVKDALKRLLKRKCC (OR2T4; [1]) [%],% of the activation by the optimized sequence RNKEVKDALKRLLKRKCC (OR2T4; [2]) [%],also measured
SEQ ID NO: 117 (RNKEVKKAIKRLFKRKCC; source 1..18: note = C-terminal domain sequence),310.7,435.4,282.5,96.2,88.2,fold-induction of luciferase (OR5A2; muscone 0.01 μM): 0.96; fold-induction of luciferase (OR5A2; muscone 0.03 μM): 1.39; fold-induction of luciferase (OR5A2; muscone 0.10 μM): 3.49; fold-induction of luciferase (OR5A2; muscone 0.32 μM): 9.33; fold-induction of luciferase (OR5A2; muscone 1.00 μM): 19.44; fold-induction of luciferase (OR5A2; muscone 3.16 μM): 27.31; fold-induction of luciferase (OR5A2; muscone 10.00 μM): 30.34
"CCCCC(CC)CCC(=O)O (centres unmarked) [4-ethyloctanoic acid, reference compound]",,,,,,Comments on efficacy (OR52A5): 2.5-fold lower; Fold-improvement threshold (OR52A5; changed C-term. vs wild-type): >10
"CCOc1cc(C=O)ccc1O [ethyl vanillin, reference compound]",,,,,,"response of the modified receptor (OR5A2; modified OR5A2, SEQ ID NO: 86): no response"
SEQ ID NO: 740 (RNKQIRDALKRLLKRKCC; source 1..18: note = C-terminal domain sequence),,,,,,fold induction of luciferase by 4-ethyloctanoic acid (OR52A5; 1 µM): 10.09; fold induction of luciferase by 4-ethyloctanoic acid (OR52A5; 10 µM): 12.30; fold induction of luciferase by 4-ethyloctanoic acid (OR52A5; 31 µM): 19.31
SEQ ID NO: 116 (RNKEVKRAIKRLFKRKCC; source 1..18: note = C-terminal domain sequence),393.9,433.2,303.9,63.3,77.0,
"CC1COCc2cc3c(cc21)C(C)(C)C(C)C3(C)C (centres unmarked) [Galaxolide, reference compound]",,,,,,"Comments on efficacy (OR5A2): No induction; Detection threshold; concentration for 2-fold induction (OR5A2; changed C-term. SEQ ID NO: 86): 0.0016 µM; Fold-improvement potency (OR5A2; changed C-term. vs wild-type): >300; Fold-improvement threshold (OR5A2; changed C-term. vs wild-type): >20000; concentration at which activation occurs (OR5A2; modified OR5A2, SEQ ID NO: 86): < 0.01 µM; Detection threshold; concentration for 2-fold induction (OR5A2; wild-type): (>>31) μM"

# Now from value to molecule, other results behind:
% of the activation by the optimized sequence RNKEVKDALKRLLKRKCC (OR7C1) [%],% of the activation by the optimized sequence RNKEVKDALKRLLKRKCC (OR5B12; 31 μM Hedione HC) [%],% of the activation by the optimized sequence RNKEVKDALKRLLKRKCC (OR5B12; 62.5 μM Hedione HC) [%],% of the activation by the optimized sequence RNKEVKDALKRLLKRKCC (OR2T4; [1]) [%],% of the activation by the optimized sequence RNKEVKDALKRLLKRKCC (OR2T4; [2]) [%],Molecule,also measured
262.4,317.8,195.1,108.8,116.6,SEQ ID NO: 114 (RNKEVKRAIKRLLKRKCC; source 1..18: note = C-terminal domain sequence),
258.8,331.3,222.3,97.3,102.0,SEQ ID NO: 122 (RNKEVKKAIKRLLKRKCR; source 1..18: note = C-terminal domain sequence),
288.9,126.2,136.1,80.6,98.4,SEQ ID NO: 118 (RNKEVKRAIRKLLKRKCC; source 1..18: note = C-terminal domain sequence),
,250.7,233.4,,,SEQ ID NO: 156 (RNKEVKDALKRLLKRKCCRRR; source 1..21: note = C-terminal domain sequence),fold induction of luciferase by 4-ethyloctanoic acid (OR52A5; 1 µM): 9.39; fold induction of luciferase by 4-ethyloctanoic acid (OR52A5; 10 µM): 14.90; fold induction of luciferase by 4-ethyloctanoic acid (OR52A5; 31 µM): 22.00
196.0,182.3,145.7,94.8,96.5,SEQ ID NO: 150 (RNKEVKDALKRLLKRKCRKK; source 1..20: note = C-terminal domain sequence),
346.4,342.8,242.1,139.9,150.6,SEQ ID NO: 121 (RNKEVKRAIKRLLKRKCR; source 1..18: note = C-terminal domain sequence),
